The target in one experiment is T1, human CD39 (gene ID 953) (human, UniProt P49961 5-510).
T1 construct: Cell-surface form: transiently or stably transfected HEK cells, PBMCs, AML cell lines; also called native CD39; human CD39 transfected HEK cells
T1 sequence: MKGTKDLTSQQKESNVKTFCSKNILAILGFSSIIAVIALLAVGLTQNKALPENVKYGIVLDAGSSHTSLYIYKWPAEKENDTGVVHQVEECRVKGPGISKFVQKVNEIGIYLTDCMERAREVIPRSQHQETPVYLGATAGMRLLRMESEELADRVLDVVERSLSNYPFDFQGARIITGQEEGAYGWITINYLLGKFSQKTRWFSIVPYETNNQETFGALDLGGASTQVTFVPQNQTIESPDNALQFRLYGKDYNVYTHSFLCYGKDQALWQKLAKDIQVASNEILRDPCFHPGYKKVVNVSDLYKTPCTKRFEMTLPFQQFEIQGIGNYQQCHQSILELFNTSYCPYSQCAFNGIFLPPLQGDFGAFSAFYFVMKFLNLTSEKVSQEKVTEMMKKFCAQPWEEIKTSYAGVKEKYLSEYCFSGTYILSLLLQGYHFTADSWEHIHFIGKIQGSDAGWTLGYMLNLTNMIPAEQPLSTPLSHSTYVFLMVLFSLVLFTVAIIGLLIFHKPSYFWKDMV
Description: flow cytometry, rabbit IgG hcAb supernatant on transfected HEK cells. On the technique in general: A flow cytometer gives signals particle by particle.

Experiment [1] addresses recombinant human CD39 ectodomain with C-terminal His6x tag (human) (UniProt P49961). The experiment can be described thus: BLI (Octet RED96), rabbit IgG hcAb on protein A biosensor, recombinant CD39 ectodomain as analyte.
Experiment [2] has the same target. The experiment can be described thus: BLI (Octet RED96), rabbit IgG hcAb on protein A biosensor, recombinant CD39 ectodomain as analyte at 200 ng/µl. For orientation: BLI is a label-free optical method that tracks binding on a fibre tip over time.

Drawing on patent US20240352144A1 (UNIVERSIT TSKLINIKUM HAMBURG EPPENDORF, published 2024), this text covers binding result and koff for 2 molecules.

As usually defined, the koff is the rate constant with which the complex falls apart.

B1: SB129 rabbit IgG hcAb (Fc fusion, not shown: a dimerising Fc or GST)
VHH: QVQLVESGGGLVQAGDSLRLSCAASGRTPITTTTGWFRQAPGKEREFVAAIRWNSGDAAYADSAKGRFTISRDSAKNTLYLQMNNLEPEDTAVYYCAAKYSRYAPQSTDYDYWGQGTQVTVSS
notes: also called family 2
Turning to B1, the binding result with human CD39 (gene ID 953) is “binds”. The values for the koff in experiment [1] and in experiment [2] were 0.05 s⁻¹ and 0.052 s⁻¹, respectively.

B2: SB28 rabbit IgG hcAb (Fc fusion, not shown: a dimerising Fc or GST)
VHH: QVQLVESGGGLVQPGGSLRLSCAASGSIFNFNAMGWYRQAPGKQRELVAAITSGGSTNYADSVKGRFTISRDNAKNTVYLQMNSLKPEDTAVYYCHGIGGSTWFGEEEYDYWGQGTQVTVSS
notes: also called family 1
Consider B2, for which the binding result with human CD39 (gene ID 953) is “binds”. In addition, the koff in experiment [1] was 0.0003 s⁻¹; in experiment [2], 0.00039 s⁻¹.
